Test results taken from patent US20220340685A1, “COMBINATION THERAPY WITH ENTPD2 AND CD73 ANTIBODIES” (Novartis AG, priority 2019, published 2022).
Residue numbers refer to the chain shown, from its start.

Experiments:
ENTPD2 = molecular target: T1, ENTPD2 (Homo sapiens, UniProt Q9Y5L3); experiment: Cell-based screen of hybridoma-derived mAbs for inhibition of ATP hydrolysis by ENTPD2
T1 sequence (Q9Y5L3 1-495): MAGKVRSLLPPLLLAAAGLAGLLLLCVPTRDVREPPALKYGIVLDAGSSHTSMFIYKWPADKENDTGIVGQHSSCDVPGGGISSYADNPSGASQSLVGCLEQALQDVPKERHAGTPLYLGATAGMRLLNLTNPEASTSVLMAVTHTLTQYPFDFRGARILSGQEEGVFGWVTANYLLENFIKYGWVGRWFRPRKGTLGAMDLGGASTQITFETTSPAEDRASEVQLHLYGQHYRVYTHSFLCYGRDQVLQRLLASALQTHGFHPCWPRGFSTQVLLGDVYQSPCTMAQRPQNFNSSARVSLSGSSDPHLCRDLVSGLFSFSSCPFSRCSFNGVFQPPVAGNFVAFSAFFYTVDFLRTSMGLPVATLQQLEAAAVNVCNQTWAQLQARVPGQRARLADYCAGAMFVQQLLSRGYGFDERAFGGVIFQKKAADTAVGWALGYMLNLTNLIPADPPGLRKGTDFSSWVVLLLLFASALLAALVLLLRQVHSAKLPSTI
From the text: Hybridoma-derived mAbs were screened in a cell-based assay for inhibition of ATP hydrolysis by ENTPD2.

[1] = molecular target: T2, recombinant human ENTPD2 (residues 29-462) (Homo sapiens, UniProt Q9Y5L3); experiment: Biochemical human ENTPD2 functional assay (Transcreener ADP2 TR-FRET)
T2 construct: residues 29-462 of human or cyno ENTPD2; GP67 signal peptide (N); made in house; host or cells: High Five (Trichoplusia ni) insect cells, baculovirus
T2 sequence (Q9Y5L3 29-462): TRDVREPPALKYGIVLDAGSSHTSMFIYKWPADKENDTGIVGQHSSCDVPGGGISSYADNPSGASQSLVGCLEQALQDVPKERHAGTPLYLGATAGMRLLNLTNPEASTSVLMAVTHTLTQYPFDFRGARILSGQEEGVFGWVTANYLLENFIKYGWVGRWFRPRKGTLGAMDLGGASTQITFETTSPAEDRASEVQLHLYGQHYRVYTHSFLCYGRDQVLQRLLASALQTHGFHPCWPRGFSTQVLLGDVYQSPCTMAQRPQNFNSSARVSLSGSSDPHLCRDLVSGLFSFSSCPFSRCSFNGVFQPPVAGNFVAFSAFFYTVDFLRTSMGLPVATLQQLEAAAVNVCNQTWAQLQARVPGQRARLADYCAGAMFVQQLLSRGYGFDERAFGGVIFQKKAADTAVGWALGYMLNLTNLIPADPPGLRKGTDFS
From the text: Biochemical and cell-based functional assays were developed in-house to understand functional impact of anti-ENTPD2 Abs against purified extracellular domain of ENTPD2 (residues 29-462), as well as against the fully intact protein in the context of the native cell-based conformation. ENTPD2 hydrolyzes ATP to ADP, which can subsequently be detected using the HTRF Transcreener ADP2 TR-FRET Red Assay (BellBrook Labs, Madison, Wis.) where ENTPD2-produced ADP would compete with the ADP Tracer for binding to the anti-ADP-Tb antibody. The resulting signal is inversely proportional to the concentration of ADP in the sample. […]
HTRF signal (Emission at 620 nm and 665 nm) was assessed in both assays using the Envision plate reader in HTRF mode (Perkin Elmer, Waltham, Mass.). HTRF ratio was determined using the following formula: HTRF ratio=R=Emission at 665 nm/Emission at 620 nm×10,000. Subsequently % Residual Activity and % Inhibition were determined as follows:
Where R0% is the HTRF ratio of the negative control (0% enzyme activity), and R100% is the HTRF ratio of the positive control (100% enzyme activity). Data were analyzed in Microsoft Excel and graphed using GraphPad's Prism 7.0 software and IC50 values were obtained using non-linear regression, log (agonist) vs. response-variable slope (four parameters) analysis.

B16F10 tumor model = experiment: Syngeneic B16F10 tumor model, tumor growth; type: in vivo, C57BL/6 mice; conditions: mAb13 15 mg/kg, anti-PD-1 Ab 10 mg/kg i.p., days 1, 5, 8
Description: B16F10 model was established in female C57BL/6 mice by subcutaneous injection of 0.5×10^6 cells into the right flank of each mouse. On day 7 once tumors reached approximately 30 mm^3, mice were randomized according to tumor volume into treatment groups (n=10 per group). Mice received treatment of either anti-mouse ENTPD2 mAb13 at a final dose 15 mg/kg, anti-PD-1 Ab (clone RMP1-14 Bio X Cell, West Lebanon, N.H.) i.p. at a final dose of 10 mg/kg or the combination of both treatments on days 1, 5, and 8. All doses were adjusted to individual mouse body weights.

4T1 clone 45 model = experiment: 4T1 clone 45 model, plasma cytokines and Serum Amyloid P 24 hr post treatment; type: in vivo, BALB/c mice; conditions: 24 hours after the first treatments
From the text: In order to investigate the immediate impact of ENTPD2 blockade from an immune pathway engagement/biomarker perspective plasma was collected from BALB/c mice 24 hr after treatment with anti mENTPD2 mAb15 alone or in combination with anti-CD73 mAb 350.
(§1) Mouse ENTPD2-engineered 4T1 clone 45 model was established in female BALB/c mice by subcutaneous injection of 0.5×10^6 cells into the right flank of each mouse. Once tumors reached approximately 100-150 mm^3, mice were randomized according to tumor volume into treatment groups (n=8 per group). Mice received an i.p. treatment of either Anti-mENTPD2 mAb 15 or a non-specific mouse IgG2a isotype control at a final dose of 10 mg/kg on day 0, 2, 5 and 9. Anti-CD73 mAb 350 or a non-specific human IgG4 was dosed i.p. at a final dose of 20 mg/kg on day 0 and 5 (Table 28).
For the measurement of cytokines and Serum Amyloid P, a marker of inflammation in a mouse, plasma was collected pre-dosing the mice on Day 0 and 24 hours after the first treatments on Day 1.
Briefly, plasma was isolated via collection of blood into Microvette MV-H-300 Capillary Plasma Lithium Heparin Blood Collection tube (Sai Infusion technologies, Lake Villa, Ill.), that were spun down at 1000-2000 ×g for 10 min. Plasma samples were stored at −80C until use. 10 μL of serum diluted 1:5 was used for cytokine analysis using the MSD Mouse Pro-Inflammatory Panel 1 (MSD, Rockville, Md.) and 5 μL of serum diluted 1:10 MSD Mouse Cytokine Panel 1 (MSD, Rockville, Md.) according to manufacturer's recommendations. To determine the levels of SAP 10 μL of undiluted serum was used for analysis in the SAP Quantikine® ELISA (RnD systems) according to manufacturer's recommendations.

[2] = system: mouse ENTPD2-engineered 4T1 clone 45; experiment: Mouse ENTPD2 engineered 4T1 clone 45 syngeneic model, efficacy; type: in vivo, BALB/c mice; conditions: Day 12 post treatment; mAb15 10 mg/kg i.p.; mAb 350 20 mg/kg i.p.
From the text: This model was derived from the 4T1 murine breast cancer model, where mouse ENTPD2 was overexpressed using a retroviral transduction approach. […] Stable mouse ENTPD2 expression (approximately 479,000 receptors) in the model was confirmed in vitro by flow cytometry with the mouse ENTPD2 selective anti mouse ENTPD2 mAb15 (FIG. 27).
as §1, with “50-80” for “100-150”, “(n=10” for “(n=8”, “mAb15” for “mAb 15”, “5.” for “5 (Table 28).”

4T1 clone 45 tumors = experiment: 4T1 clone 45 model, flow cytometry of tumor cells and immune infiltrate on day 12; type: in vivo, BALB/c mice
From the text: In order to understand the impact of anti-ENTPD2 mAb15 alone or in combination with anti-CD73 mAb 350 treatments on the tumor microenvironment, mice were euthanized on day 12 and tumors were dissociated in HyClone RPMI1640 media (GE Healthcare, Pittsburg, Pa.) using gentleMacs C-tubes (Miltenyi Biotec, Auburn, Calif.) on the gentleMacs Octo Dissociator (Miltenyi Biotec, Auburn, Calif.). Approximately 2×10^6 dissociated tumor cells were blocked with rat anti-mouse CD16/CD32 Ab (Biolegend, San Diego, Calif.) to reduce non-specific FcyRIII/II binding and subsequently stained with the cocktails of antibodies from either the myeloid or T cell panel:
We also stained cells with an anti-ENTPD2 antibody whose binding to ENTP2 is not blocked by anti-ENTPD2 mAb15. All incubations and washed were performed in FACS Buffer composed of 1× Hyclone Phosphate Buffered Saline (GE Healthcare, Pittsburg, Pa.), 1% HyClone Fetal Bovine Serum (GE Healthcare, Pittsburg, Pa.), 2 mM EDTA (ThermoFisher, Waltham Mass.).

B1: mAb17: hybridoma-derived anti-human ENTPD2 lead inhibitory mAb (chimeric); VH/VL DNA SEQ ID NO: 234/238 (antibody, V domains shown)
VH: EVQLQQFGAELVKPGASVKISCKASGYTFTDYNMDWVKQSHGKSLEWIGDINPKYDISTYNQQFKGKATLTVDKSSSTAYMELRSLTSEDTAVYYCARRGFFLYYGINYYYFDVWGAGTTVTVSS
VL: QIVLTQSPAIMSASLGEEITLTCSASSSVSYIHWYQQKSGTSPTLLIYSTSNLASGVPSRFSGSGSGTFYSLTISSVEAEDAADYYCHQWSSYPWTFGGGTKLEIK
modifications: constant regions not cited
ENTPD2
  inhibition of ATP hydrolysis by ENTPD2 (screen outcome): lead inhibitory mAbs
[1]
  inhibition of the catalytic activity of recombinant human ENTPD2: potently inhibit

B2: mAb16: hybridoma-derived anti-human ENTPD2 lead inhibitory mAb (chimeric); VH/VL DNA SEQ ID NO: 226/230 (antibody, V domains shown)
VH: DIQLQESGPGLVKPSQSLSLTCSVTGYSITSGYYWNWIRQFPGNKLEWMGYISYDGDNNYNPSLKNRISITRDTSKNQFFLKLSSVTTEDTATYYCAGGYYRYGLSYYYVMDYWGQGTSVTVSS
VL: DTVLTQSPASLAVSLGQRATISCKASQSVDYDGNSYMNWYQQKPGQPPKLLIYAASNLESGIPARFSGSGSGTDFTLNIHPVEEEDAATYYCQQSNEDPPTFGGGTKLEIK
modifications: constant regions not cited
ENTPD2
  inhibition of ATP hydrolysis by ENTPD2 (screen outcome): lead inhibitory mAbs

B3: mAb13: anti-mouse ENTPD2 monoclonal antibody; HC SEQ ID NO: 193, LC SEQ ID NO: 204 (antibody)
heavy: QVQLVQSGAELKQPGQSVKISCKASGYTFTHYGMNWVKQAPGQGLKWMGWINTDTGNPTYADDFKGRFVFSLDTSVSTAYLQISNLKNEDTATYYCVRYGTLYSGYGFFFDSWGQGTLVTVSSAKTTAPSVYPLAPVCGDTTGSSVTLGCLVKGYFPEPVTLTWNSGSLSSGVHTFPAVLQSDLYTLSSSVTVTSSTWPSQSITCNVAHPASSTKVDKKIEPRGPTIKPCPPCKCPAPNLLGGPSVFIFPPKIKDVLMISLSPIVTCVVVDVSEDDPDVQISWFVNNVEVHTAQTQTHREDYNSTLRVVSALPIQHQDWMSGKEFKCKVNNKDLPAPIERTISKPKGSVRAPQVYVLPPPEEEMTKKQVTLTCMVTDFMPEDIYVEWTNNGKTELNYKNTEPVLDSDGSYFMYSKLRVEKKNWVERNSYSCSVVHEGLHNHHTTKSFSRTPGK
light: DIMMTQSPSSLSVSAGEKATITCKSSQSLFNSNTNKNYLNWYLQKPGQSPKLLFYYASTRHTGVPDRFIGSGSGTDFTLTITSVQDEDLADYYCQQWYSYPWTFGPGTKLEIKRADAAPTVSIFPPSSEQLTSGGASVVCFLNNFYPKDINVKWKIDGSERQNGVLNSWTDQDSKDSTYSMSSTLTLTKDEYERHNSYTCEATHKTSTSPIVKSFNRNEC
B16F10 tumor model
  anti-tumor efficacy (tumor growth relative to No Treatment): No significant anti-tumor efficacy

B4: mAb15: anti-mouse ENTPD2 antibody, T30 variant of mAb13; HC SEQ ID NO: 218, LC SEQ ID NO: 204 (antibody)
heavy: B3 heavy with T30H
light: B3 light
4T1 clone 45 model
  SAP (Serum Amyloid P): significant increase
  plasma IP10: significant increase
  plasma MCP1: significant increase
  plasma MIP-2: significant increase
[2]
  AT/AC value: 76.61
4T1 clone 45 tumors; day 12
  CD4+ central memory cells (CD45+MHCII-CD49−CD4+CD62L+CD44+): significant increase
  activated CD8+ T cells (CD45+MHCII-CD49−CD8+CD25+): significant increase
4T1 clone 45 tumors; day 12, vs hIgG4 and mIgG2 isotype antibodies
  cell surface ENTPD2 staining on tumor cells: decrease in cell surface ENTPD2 staining
